Laboratory results as given in publication PMC3794980.

Legend:
[1] = biological target: HLA-A2:Ig fusion protein; test: fluorescence polarisation
[2] = biological target: HLA class II molecule DRB1*1501 (human (endogenous in EBV transformed homozygous cell lines)); test: radioligand binding
[3] = biological target: HLA-DR DRB1*0101 (human (endogenous in EBV transformed cell lines)); test: radioligand binding
[4] = biological target: HLA-DR DRB1*0701 (human (endogenous in EBV transformed cell lines)); test: radioligand binding
[5] = biological target: HLA-DR DRB1*0802 (human (endogenous in EBV transformed cell lines)); test: radioligand binding
[6] = biological target: HLA-DR DRB1*0901 (human (endogenous in EBV transformed cell lines)); test: radioligand binding
[7] = biological target: HLA-DR DRB1*1302 (human (endogenous in EBV transformed cell lines)); test: radioligand binding
[8] = biological target: HLA-DR DRB4*0101 (human (endogenous in EBV transformed cell lines)); test: radioligand binding
[9] = biological target: HLA-DR DRB5*0101 (human (endogenous in EBV transformed cell lines)); test: radioligand binding
[10] = biological target: HLA-DR DRB1*0405 (human (endogenous in EBV transformed cell lines)); test: radioligand binding
[11] = biological target: HLA-DR DRB1*1501 (human (endogenous in EBV transformed cell lines)); test: radioligand binding
[12] = biological target: HLA-DR DRB1*0401 (human (endogenous in EBV transformed cell lines)); test: radioligand binding
[13] = biological target: HLA-DR DRB1*0404 (human (endogenous in EBV transformed cell lines)); test: radioligand binding
[14] = biological target: HLA-DR DRB1*0301 (human (endogenous in EBV transformed cell lines)); test: radioligand binding
[15] = biological target: HLA-DR DRB1*1101 (human (endogenous in EBV transformed cell lines)); test: radioligand binding
[16] = biological target: HLA-DR DRB3*0101 (human (endogenous in EBV transformed cell lines)); test: radioligand binding

Substance	IC50 [3] [nM]	IC50 [4] [nM]	IC50 [5] [nM]	IC50 [6] [nM]	IC50 [7] [nM]	IC50 [8] [nM]	IC50 [9] [nM]	IC50 [10] [nM]	IC50 [11] [nM]	IC50 [12] [nM]	IC50 [13] [nM]	IC50 [14] [nM]	IC50 [15] [nM]	other results
DENV3 Env_(106–114) (peptide)														IC50 [1]: 2.9 nM
DENV3 Env_(126–140) (peptide)														IC50 [2]: < 20 nM
DENV3 Env_(231–245) (peptide)														IC50 [2]: < 20 nM
DENV3 Envelope 41-55 (peptide)	2.33	3.13	5.08	132	27.2	6.51	684							
DENV3 Envelope 126-140 (peptide)	980		37.1			59.1		89.7	21.5					
DENV3 Envelope 156-170 (peptide)	463					707		45.5		7.66	444			
DENV3 Envelope 161-175 (peptide)		509	62.9		68.3			691		115				
DENV3 Envelope 346-360 (peptide)	4.5	67.6	288		14.5				332	343				
DENV3 Envelope 396-410 (peptide)	4.89	296	106	39.9			26.8		258			424	38.9	IC50 [16]: 424 nM
DENV3 NS1 85-99 (peptide)	55.8	70.1		41.9	483				21.2	87.7		533	807	
DENV3 NS1 117-131 (peptide)			56.3					285		28.1	695			IC50 [16]: 534 nM
DENV3 NS1 169-183 (peptide)	226	136		650		878		277	441	474	457			IC50 [16]: 747 nM
DENV3 NS1 173-187 (peptide)	25.9			608			753			502		787	651	IC50 [16]: 57.5 nM
DENV3 NS1 225-239 (peptide)					58.9					322				
DENV3 NS3 61-75 (peptide)					84.5		143							
DENV3 NS3 101-115 (peptide)	201							725	447					
DENV3 NS3 185-199 (peptide)			21			7.64		972		171		870	71.8	
DENV3 NS3 237-251 (peptide)			35.8	928			12.9	150	638	13.1	310		807	
DENV3 NS3 277-291 (peptide)	383		396		68.2			402		142		37.3		IC50 [16]: 4.42 nM
DENV3 NS3 297-311 (peptide)		77.2						90		16.4	127		35.3	

Substance	IC50 [3] [nM]	IC50 [4] [nM]	IC50 [5] [nM]	IC50 [6] [nM]	IC50 [7] [nM]	IC50 [8] [nM]	IC50 [9] [nM]	IC50 [10] [nM]	IC50 [11] [nM]	IC50 [12] [nM]	IC50 [13] [nM]	IC50 [14] [nM]	IC50 [15] [nM]	other results
DENV3 NS3 309-323 (peptide)	27	47.8	30.8	129		9.15		32.1	363	2.36	350			
DENV3 NS3 353-367 (peptide)		87.4						884			858			
DENV3 NS3 433-447 (peptide)					23.7							68.6		IC50 [16]: 134 nM
DENV3 NS3_(357–371) (peptide)														IC50 [2]: < 20 nM
DENV3 NS5 193-209 (peptide)	87.5	144			15.1				199					
DENV3 NS5 221-237 (peptide)	3.97	20.7	5.83	44.9	65.4	60.4		25	19.9	1.05	84.3	15	30.9	
DENV3 NS5 233-248 (peptide)	108		159		34	617	413	699	307	57			15.9	
DENV3 NS5 477-493 (peptide)	11.7	26.2		78.7		274	56.2	54.4		67.1	124			IC50 [16]: 25.9 nM
DENV3 NS5 489-505 (peptide)	231						936	236				118		IC50 [16]: 387 nM
DENV3 NS5 523-539 (peptide)	733					445				7.25		9.29	170	IC50 [16]: 44.8 nM
DENV3 NS5 558-574 (peptide)		134					391	667	401			586	173	
DENV3 NS5 564-580 (peptide)	18.8			100	11.3		305		28	390		222	344	IC50 [16]: 576 nM
DENV3 NS5 576-592 (peptide)					297	108								
DENV3 NS5 714-729 (peptide)				690	10.6		245		66.3			36.8	671	
DENV3 NS5 719-735 (peptide)	214				229			22.5			190	44.1		
DENV3 NS5 747-763 (peptide)	53.7			393				38.6	167		111			
DENV3 NS5 765-779 (peptide)	40.8		7.85	61.2	4.92		726		118					IC50 [16]: 127 nM
DENV3 NS5 769-785 (peptide)	27.9		27.6	61.2	4.5	212	113	15.9		3.61	92.6	409	78.7	
DENV3 NS5 866-882 (peptide)			7.14	66.1	543				148			178	421	
DENV4 inter-serotype variant of NS3_(399–407) (peptide)														IC50 [1]: 61 nM
